# Source: US20220251562
# Legend:
# [1] = system: CD3 complex on Jurkat cells (Homo sapiens); assay: flow; conditions: apparent
# [2] = target: CD3 epsilon/gamma heterodimer (Homo sapiens) (UniProt P07766+P09693); assay: SPR; conditions: steady state
# [3] = target: CD3 epsilon/delta heterodimer (Macaca fascicularis) (UniProt Q95LI5+Q95LI8); assay: SPR; conditions: steady state
# [4] = target: T1, CD3 epsilon/delta heterodimer (Mus musculus) (UniProt P22646+P04235); assay: SPR; conditions: steady state
# T1 sequence 1: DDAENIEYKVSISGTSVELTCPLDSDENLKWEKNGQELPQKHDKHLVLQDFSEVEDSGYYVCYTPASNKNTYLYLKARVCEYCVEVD
# T1 sequence 2: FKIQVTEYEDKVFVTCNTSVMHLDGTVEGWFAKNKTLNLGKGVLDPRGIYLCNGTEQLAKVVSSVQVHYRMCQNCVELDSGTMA
# [5] = target: CD3 epsilon/delta heterodimer (Homo sapiens) (UniProt P07766+P04234); assay: SPR; conditions: kinetic
# CD3 epsilon/delta heterodimer (Homo sapiens), sequence (P07766 23-126, stated change not applied, chain 1 of 2): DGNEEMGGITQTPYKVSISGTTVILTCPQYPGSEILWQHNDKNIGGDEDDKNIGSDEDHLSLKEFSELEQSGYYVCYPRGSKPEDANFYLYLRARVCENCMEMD
# CD3 epsilon/delta heterodimer (Homo sapiens), sequence (P04234 22-105, stated change not applied, chain 2 of 2): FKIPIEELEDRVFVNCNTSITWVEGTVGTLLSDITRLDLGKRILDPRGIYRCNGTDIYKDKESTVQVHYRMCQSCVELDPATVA
# CD3 epsilon/gamma heterodimer (Homo sapiens), sequence (P07766 23-126, chain 1 of 2): as the sequence (P07766 23-126, stated change not applied, chain 1 of 2) above
# CD3 epsilon/gamma heterodimer (Homo sapiens), sequence (P09693 23-116, chain 2 of 2): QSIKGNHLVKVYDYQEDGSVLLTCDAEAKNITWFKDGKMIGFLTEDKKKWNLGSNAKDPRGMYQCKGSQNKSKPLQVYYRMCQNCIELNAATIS
# CD3 epsilon/delta heterodimer (Macaca fascicularis), sequence (Q95LI5 22-117, stated change not applied, chain 1 of 2): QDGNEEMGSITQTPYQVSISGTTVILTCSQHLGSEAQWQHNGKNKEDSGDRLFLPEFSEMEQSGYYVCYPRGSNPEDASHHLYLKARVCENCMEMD
# CD3 epsilon/delta heterodimer (Macaca fascicularis), sequence (Q95LI8 22-105, stated change not applied, chain 2 of 2): as the sequence (P04234 22-105, stated change not applied, chain 2 of 2) above, with I5V, N15K, I20V, S32T, D33N, I34N, T64A, S74N, V83L counted along it
sequence,measurement,setting,value
GGGNTTGGCNNNGGGNCTGGC [CELTIC_core],Kd,[1]; negligible signal on Ramos,> 50 nM
same,Kd,[2]; kinetic 845 pM (Table 8),427 nM
same,Kd,[3],1210 nM
same,Kd,[4],591000 nM
same,Kd,[5],1 nM
GGGTTTGGCACCGGGCTGGC [CELTIC_core_12],Kd,"[2]; _ is abasic C3 spacer at position 16, kinetic 1.15 pM (Table 8)",98 nM
same,Kd,[5]; _ is abasic C3 spacer at position 16,1.5 nM
GGGTTTGGCACGGGCCTGGC [CELTIC_core_24],Kd,"[2]; _ is abasic C3 spacer at position 11, 5'-HEG, kinetic 67 pM (Table 8)",218 nM
same,Kd,"[5]; _ is abasic C3 spacer at position 11, 5'-HEG",0.041 nM
GGGTTTGGCACGGGCCTGGC [CELTIC_core_24t],Kd,"[2]; _ is abasic C3 spacer at position 11, 5'-HEG, 3'-3' dT, kinetic 238 pM (Table 8)",233 nM
same,Kd,"[5]; _ is abasic C3 spacer at position 11, 5'-HEG, 3'-3' dT",0.006 nM
GGGTTTGGCACGGGCTGGC [CELTIC_core_42 5'-tetrazine],Kd,"[1]; _ is abasic C3 spacer (positions 11 and 16), HEG, 5'-tetrazine-PEG5, specificity retained vs Ramos",< 25 nM
GGGTTTGGCACGGGCTGGC [CELTIC_core_42],Kd,"[1]; _ is abasic C3 spacer (positions 11 and 16), 5'-HEG, biotin at 5' or 3' end equivalent",< 50 nM
same,Kd,"[2]; _ is abasic C3 spacer at positions 11 and 16, 5'-HEG, kinetic 277 pM (Table 8)",194 nM
same,Kd,"[5]; _ is abasic C3 spacer at positions 11 and 16, 5'-HEG",0.772 nM
GGGTTTGGCACGGGCTGGC [CELTIC_core_42t],Kd,"[2]; _ is abasic C3 spacer at positions 11 and 16, 5'-HEG, 3'-3' dT, kinetic 43 pM (Table 8)",176 nM
same,Kd,"[5]; _ is abasic C3 spacer at positions 11 and 16, 5'-HEG, 3'-3' dT",0.275 nM
GGGTTTGGCATCGGGCTGGC [CELTIC_core_29],Kd,"[2]; _ is abasic C3 spacer at position 16, 5'-HEG, kinetic 5.4 pM (Table 8)",205 nM
same,Kd,"[5]; _ is abasic C3 spacer at position 16, 5'-HEG",0.014 nM
